Patent US20230192896A1 (published 2023)
Changes are numbered by the printed parent chain.

T1: FX zymogen (UniProt P00742 41-179; P00742 183-488)
T1 chain 1: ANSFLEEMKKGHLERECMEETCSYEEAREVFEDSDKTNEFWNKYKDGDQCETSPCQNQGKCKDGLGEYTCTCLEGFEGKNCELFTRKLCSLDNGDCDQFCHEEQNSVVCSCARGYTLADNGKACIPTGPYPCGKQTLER
T1 chain 2: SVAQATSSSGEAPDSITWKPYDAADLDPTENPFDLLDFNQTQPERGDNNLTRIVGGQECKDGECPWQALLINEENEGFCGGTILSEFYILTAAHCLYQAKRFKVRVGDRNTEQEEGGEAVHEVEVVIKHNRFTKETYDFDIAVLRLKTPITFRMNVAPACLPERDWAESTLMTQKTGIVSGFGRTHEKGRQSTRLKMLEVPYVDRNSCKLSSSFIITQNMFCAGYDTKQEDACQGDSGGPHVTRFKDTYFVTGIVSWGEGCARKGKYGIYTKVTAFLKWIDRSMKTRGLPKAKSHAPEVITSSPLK

B1: BIIB-9-625 (antibody, V domains shown)
VH: QLQLQESGPGLVKPSETLSLTCTVSGGSISSSSYAWGWIRQPPGKGLEWIGSIYYSGSTYYNPSLKSRVTISVDTSKNQFSLKLSSVTAADTAVYYCARDRGWYTEVLDIWGQGTMVTVSS
VL: DIQMTQSPSSLSASVGDRVTITCRASQSISSYLNWYQQKPGKAPKLLIYAASSLQSGVPSRFSGSGSGTDFTLTISSLQPEDFATYYCQQSDTDPPTFGGGTKVEIK
B2: BIIB-9-884 (antibody, V domains shown)
VH: QLQLQESGPGLVKPSETLSLTCTVSGGSISSSDYYWGWIRQPPGKGLEWIGSIYYSGSTYYNPSLKSRVTISVDTSKNQFSLKLSSVTAADTAVYYCARSPRHKVRGPNWFDPWGQGTLVTVSS
VL: EIVLTQSPGTLSLSPGERATLSCRASQSVSSSYLAWYQQKPGQAPRLLIYGASSRATGIPDRFSGSGSGTDFTLTISRLEPEDFAVYYCQQYHLLPPTFGGGTKVEIK
B3: BIIB-9-627 (antibody, V domains shown)
VH: QVQLVQSGAEVKKPGASVKVSCKASGYTFTSYYMHWVRQAPGQGLEWMGIINPSGGSTSYAQKFQGRVTMTRDTSTSTVYMELSSLRSEDTAVYYCARADYDYWSGYGGLGMDVWGQGTTVTVSS
VL: not shown
B4: BIIB-9-419 (antibody, V domains shown)
VH: QVQLVQSGAEVKKPGASVKVSCKASGYTFTSYYMHWVRQAPGQGLEWMGIINPSGGSTSYAQKFQGRVTMTRDTSTSTVYMELSSLRSEDTAVYYCAREPTFYASYFDLWGRGTLVTVS
VL: EIVMTQSPATLSLSPGERATLSCRASQSVSSYLAWYQQKPGQAPRLLIYDSSNRATGIPARFSGSGSGTDFTLTISSLEPEDFAVYYCQQVSTHPYTFGGGTKVEIK
B5: BIIB-9-1273 (antibody, V domains shown)
VH: QVQLVQSGAEVKKPGASVKVSCKASGYTFTSYYMHWVRQAPGQGLEWMGIINPSGGSTSYAQKFQGRVTMTRDTSTSTVYMELSSLRSEDTAVYYCARDTGGYAFDIWGQGTLVTVSS
VL: B4 VL with M4L, S7Y, S51A, V91S, S92A, T93N, H94F, Y96F
B6: BIIB-9-616 (antibody, V domains shown)
VH: B5 VH with D99G, T100G, G101S, G102K, A104F, I107L, Q110R
VL: EIVMTQSPATLSVSPGERATLSCRASQSVSSSLAWYQQKPGQAPRLLIYGASTRATGIPARFSGSGSGTEFTLTISSLQSEDFAVYYCQQADNFPFTFGGGTKVEIK
B7: BIIB-9-882 (antibody, V domains shown)
VH: QVQLVQSGAEVKKPGASVKVSCKASGYTFTSYYMHWVRQAPGQGLEWMGIINPSGGSTSYAQKFQGRVTMTRDTSTSTVYMELSSLRSEDTAVYYCARGPTDSSGYLDMDVWGKGTTVTVSS
VL: B6 VL with S32N, Y49F, A91H, F96P
B8: BIIB-9-469 (antibody, V domains shown)
VH: QVQLVQSGAEVKKPGASVKVSCKASGYTFTSYYMHWVRQAPGQGLEWMGIINPSGGSTSYAQKFQGRVTMTRDTSTSTVYMELSSLRSEDTAVYYCARDLGYGRSYDFDLWGRGTLVTVSS
VL: B6 VL with S32N, Y49F, A91S, D92N
B9: BIIB-9-446 (antibody, V domains shown)
VH: QVQLVQSGAEVKKPGSSVKVSCKASGGTFSSYAISWVRQAPGQGLEWMGGIIPIFGTASYAQKFQGRVTITADESTSTAYMELSSLRSEDTAVYYCARGLEVGYYGYFDYWGQGTLVTVSS
VL: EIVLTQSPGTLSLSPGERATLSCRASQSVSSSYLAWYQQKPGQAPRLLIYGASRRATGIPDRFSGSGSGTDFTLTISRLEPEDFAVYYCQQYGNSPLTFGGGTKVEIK
B10: BIIB-12-1290 (antibody, V domains shown)
VH: QVQLVQSGAEVKKPGASVKVSCKASGYTFTSYYMHWVRQAPGQGLEWMGIINPGGGSTSYAQKFQGRVTMTRDTSTSTVYMELSSLRSEDTAVYYCAREGGRYVRGMDVWGQGTTVTVSS
VL: B1 VL with L11V, S28G, Y32W, N34A, S91G, D92F, T93S, D94F, P96F
B11: BIIB-12-1323 (antibody, V domains shown)
VH: QVQLVQSGAEVKKPGASVKVSCKASGYTFTSYYIHWVRQAPGQGLEWMGIINPSGGSTSYAQKFQGRVTMTRDTSTSTVYMELSSLRSEDTAVYYCARGRRFPRGLDYWGQGTLVTVSS
VL: B1 VL with L11V, S28G, Y32W, N34A, S91A, D92N, T93I, D94F, P96F
B12: BIIB-12-895 (antibody, V domains shown)
VH: B10 VH with G54S, E99G, R102Y, Y103K, V104S, M107I, V109Y, T115L
VL: DIQMTQSPSSVSASVGDRVTITCRASQGISSWLAWYQQKPGKAPKLLIYAASSLQSGVPSRFSGSGSGTDFTLTISSLQPEDFATYYCQQASSFPFTFGGGTKVEI
B13: BIIB-12-1312 (antibody, V domains shown)
VH: QVQLVESGGGVVQPGRSLRLSCAASGFTFSSYGMHWVRQAPGKGLEWVAVISYDGSNKYYADSVKGRFTISRDNSKNTLYLQMNSLRAEDTAVYYCAKGMGHWIDYWGQGTLVTVSS
VL: B1 VL with L11V, S28G, Y32W, N34A, S91A, D92S, T93S, D94F
B14: BIIB-12-1288 (antibody, V domains shown)
VH: QVQLVQSGAEVKKPGASVKVSCKASGYTFTSYYMHWVRQAPGQGLEWMGIINPSGGSTSYAQKFQGRVTMTRDTSTSTVYMELSSLRSEDTAVYYCARGGANDYGSSSRWWYFDLWGRGTLVTVSS
VL: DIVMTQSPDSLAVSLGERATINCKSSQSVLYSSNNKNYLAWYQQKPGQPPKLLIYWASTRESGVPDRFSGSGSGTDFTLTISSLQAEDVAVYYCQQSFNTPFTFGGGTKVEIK
B15: BIIB-12-928 (antibody, V domains shown)
VH: QVQLVEFGVGVVQPGRSLRLSCAASGFTFSSYGMHWVRQAPGKGLEWVAVISYDGSNKYYADSVKGRFTISRDNSKNTLYLQMNSLRAEDTAVYYCAKGGTYLDTWGQGTLVTVSS
VL: B2 VL with S30R, H93V, L94R, L95F, P97L
B16: BIIB-12-1330 (antibody, V domains shown)
VH: QVQLVESGGGVVQPGRSLRLSCAASGFTFSSYGMHWVRQAPGKGLEWVAVISYDGSNKYYADSVKGRFTISRDNSKNTLYLQMNSLRAEDTAVYYCAKGGSARWINIWGQGTTVTVSS
VL: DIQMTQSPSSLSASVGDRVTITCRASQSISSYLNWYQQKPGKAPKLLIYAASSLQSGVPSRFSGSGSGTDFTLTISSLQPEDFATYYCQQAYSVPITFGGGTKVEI
B17: BIIB-12-900 (antibody, V domains shown)
VH: QVQLVQSGAEVKKPGASVKVSCKASGYTFTSYYMHWVRQAPGQGLEWMGIINPGGGSTSYAQKFQGRVTMTRDTSTSTVYMELSSLRSEDTAVYYCARSGGMYDRELGMDVWGQGTTVTVSS
VL: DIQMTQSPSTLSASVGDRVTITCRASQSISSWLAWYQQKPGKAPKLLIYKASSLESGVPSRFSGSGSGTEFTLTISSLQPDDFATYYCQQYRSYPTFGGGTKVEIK
B18: BIIB-12-920 (antibody, V domains shown)
VH: QVQLVQSGAEVKKPGASVKVSCKASGYTFTSYGISWVRQAPGQGLEWMGWISPYNGNTNYAQKLQGRVTMTTDTSTSTAYMELRSLRSDDTAVYYCARGSGHTTMFWGQGTLVTVSS
VL: EIVMTQSPATLSVSPGERATLSCRASQSVSSNLAWYQQKPGQAPRLLIYSASTRATGIPARFSGSGSGTEFTLTISSLQSEDFAVYYCQQANAYPPTFGGGTKVEI
B19: BIIB-12-934 (antibody, V domains shown)
VH: QVQLVESGGGVVQPGRSLRLSCAASGFTFSSYGMHWVRQAPGKGLEWVAVISYDGSNKYYADSVKGRFTISRDNSKNTLYLQMNSLRAEDTAVYYCARESGGHSYGMDVWGQGTTVTVSS
VL: B18 VL with M4L, S50G, A91F, A93D, Y94H, P96I
B20: BIIB-12-1305 (antibody, V domains shown)
VH: QVQLVESGGGVVQPGRSLRLSCAASGFTFSSYGMHWVRQAPGKGLEWVAVISYDGSNKYYADSVKGRFTISRDNSKNTLYLQMNSLRAEDTAVYYCAKLGGRWSSDFQHWGQGTLVTVSS
VL: B4 VL with M4L, S51A, V91S, S92A, T93N, H94W, Y96P
B21: BIIB-12-1291 (antibody, V domains shown)
VH: QVQLVQSGAEVKKPGASVKVSCKASGYTFTSYYMHWVRQAPGQGLEWMGIINPSGGSTSYAQKFQGRVTMTRDTSTSTVYMELSSLRSEDTAVYYCARSRRMWVGYFDLWGRGTLVTVSS
VL: B4 VL with M4L, S51A, V91R, S92L, T93N, H94L, Y96L
B22: BIIB-12-1299 (antibody, V domains shown)
VH: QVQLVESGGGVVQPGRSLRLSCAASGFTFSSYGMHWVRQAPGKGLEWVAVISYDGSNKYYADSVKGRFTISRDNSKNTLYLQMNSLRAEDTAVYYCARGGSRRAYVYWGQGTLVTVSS
VL: B6 VL with S32N, A91L, D92N, F96I
B23: BIIB-12-927 (antibody, V domains shown)
VH: B8 VH with H35S, L100S, Y102R, G103K, S105Y, D107Y, F108M, L110V, R113K, L116T
VL: B6 VL with S32N, A91F, D92N, N93L, F94W

target: free FIXa (activated Factor IX) (UniProt P00740 47-191; P00740 227-461); assay: BLI

Point of comparison: B5, Kd 20.9 nM. Against it:
- B1 — 1.8-fold lower, 11.3 nM
- B2 — 12-fold lower, 1.79 nM
- B3 — 11-fold higher, 233 nM
- B4 — within 1.5-fold, 21.1 nM
- B6 — within 1.5-fold, 16.8 nM
- B7 — 9-fold lower, 2.31 nM
- B8 — 1.6-fold lower, 13.3 nM
- B9 — within 1.5-fold, 17.5 nM

Target: T1, FX zymogen
Assay: BLI

Point of comparison: B19, Kd 60.2 nM. Against it:
- B10 — 3.7-fold lower, 16.1 nM
- B11 — 1.6-fold lower, 38.6 nM
- B12 — 2.3-fold lower, 26.3 nM
- B13 — 4.1-fold lower, 14.7 nM
- B14 — within 1.5-fold, 85.6 nM
- B15 — 2.6-fold lower, 23.1 nM
- B16 — within 1.5-fold, 56.8 nM
- B17 — 2.3-fold lower, 25.8 nM
- B18 — 2.2-fold lower, 27.7 nM
- B20 — 1.6-fold lower, 38.8 nM
- B21 — within 1.5-fold, 42.6 nM
- B22 — within 1.5-fold, 50.8 nM
- B23 — 2.3-fold lower, 26.6 nM
